According to PMC10540840, “PET imaging with [^68Ga]-labeled TGFβ-targeting peptide in a mouse PANC-1 tumor model” (Frontiers in Oncology, 2023):
Peptide text beside a SMILES is read from it. * marks the point of attachment. DOTA = O=C(O)CN1CCN(CC(=O)O)CCN(CC(=O)*)CCN(CC(=O)O)CC1; PEG3 = NCCOCCOCCOCCC(=O)O

Key:
[1] = Radio-HPLC radiochemical purity after standing at room temperature (stability); assay type: physicochemical; details: C18, room temperature, 4 h after synthesis
Procedure: Radio-HPLC and radio-iTLC assays were conducted for the quality control of product [^68Ga]Ga-DOTA-P144 and free [^68Ga] ions. American alltech1500 high-performance liquid chromatography and online radioactive detector were used. Chromatographic column: YMC-Pack Pro C18 RS (5 μm, 250 mm × 4.6 mm). Mobile phase: A) water + 0.1% formic acid; B) acetonitrile. Method: 0 min, 95% A and 5% B; 1 min, 95% A and 5% B; 10 min, 70% A and 30% B; 18 min, 70% A and 30% B; 25 min, 95% A and 5% B; flow speed, 1 mL/min. The quality control standard was that the chemical and radiochemical purities of the products were greater than 95%. Radio-iTLC analytical quantification methods/conditions were as follows. The stationary phase was iTLC glass fiber (1 cm × 8 cm instant silica gel strip), and the developing solvent was 2 mM of sodium citrate/citric acid buffer solution (pH 6.5). performed according to General Rule 1401 in Chinese Pharmacopoeia (2020 Edition), the method for the determination of radioactive drugs, the Rf value of the radioactive peak of the product to be tested was approximately 0.1–0.4, and there was a single main peak under normal conditions. If there were impurities, especially free [^68Ga] ions, the corresponding peaks should appear at the Rf value of approximately 0.6–0.8. […]

[2] = test system: PANC-1 cells; test: Cell uptake (internalization) assay in PANC-1 cells; assay type: cell-based, human; details: 200 MBq/L, 0.5-5 h incubation, FCS-free medium, γ-counter, %AD per 1 × 10^6 cells, three series
Procedure: (§1) The method process for cell uptake assay of radiolabeled drug was as follows. First, the selected cell lines were inoculated into a 6-well plate, incubated for 48 h to achieve a cell coverage rate of approximately 80%–90% (1.2–2 × 10^6 cells/well), and replaced with 1 mL of fresh culture medium without fetal calf serum (FCS). Then, a certain amount of radionuclide-labeled drug (200 MBq/L) was added to the culture well and incubated for different times (0.5–5 h). The culture medium containing the drug was removed, and the cells were washed twice with 1 mL of phosphate-buffered saline (PBS) (pH 7.4). Cells were incubated with 1 mL of glycine HCl solution (1 M, pH 2.2) at room temperature for 10 min to remove surface binding, and the cells were washed with 2 mL of ice-cold PBS (collect washing solution for detection of binding amount). After that, 1.4 mL of lysis buffer (0.3 M of NaOH, 0.2% sodium dodecyl sulfate (SDS)) was used to lyse the cells and collect this lysate. With a γ-counter, the radioactive activity in the collected lysate was measured, and the %AD value was calculated. One mio (1 × 10^6) of cells was adopted for normalization, with the result representing the internalization uptake level of the tested radiopharmaceutical by this cell line. Each experiment was repeated three times independently, with three multiple wells set at each processing time point.

[3] = test system: PC3 cells; test: Cell uptake (internalization) assay in PC3 cells; assay type: cell-based; details: 200 MBq/L, 0.5-5 h incubation, FCS-free medium, γ-counter, three series
Procedure: as §1

[4] = in vivo; details: nude, mouse, iv, 1 mg/kg, total radioactivity
Procedure: (§2) Pancreatic cancer cell line PANC-1 was obtained from the ATCC, and cells were cultured in complete RPMI1640 medium supplemented with 10% fetal calf serum (Life Technologies, Carlsbad, CA, USA). One portion of the PANC-1 cells (~1 × 10^6) was injected subcutaneously below the anterior axillary of the nude mice to induce the mouse heterotopic tumor model. The tumor cells were suspended in a mixture (v/v, 1:1) of medium and Matrigel (Corning Life Sciences, Corning, NY, USA). The tumor xenografts were generally palpable within 10 days after injection. Xenograft tumor sizes of the model mice were measured every 3 days. Short and long tumor diameters, tumor volume, and body weight were measured. When the xenograft tumor grew to a volume of 150–200 mm^3, the mice were used for PET imaging study. A diagnostic tracer and drug were injected approximately 2 weeks after the establishment of the tumor model.
(§3) Peptide conjugate P144-DOTA and the radiolabeled tracer [^68Ga]Ga-P144 were both administrated through tail vein injection. The chemical dose of [^68Ga]Ga-P144 was 1 mg/kg, and the radioactive dose was approximately 3.7 MBq in 200 μL per mouse. As a competitive blocker with the same target TGFβ, the dose of DOTA-P144 was 100 mg/kg (47.3 μmol/kg, 100 times the mass dose of the radiolabeled peptide conjugate), and the administration of this unlabeled peptide conjugate was followed after 10 min by 1 mg/kg of the radiolabeled tracer [^68Ga]Ga-P144. All the mice were deprived of food and water for 1 h before drug administration. Then, the mice were anesthetized with pentobarbital sodium (45 mg/kg) and scanned with microPET. After the last scanning, the mice were anesthetized with 2% pentobarbital sodium at 65 mg/kg intraperitoneally and then executed by dislocation of their cervical vertebra, and the tissues were harvested for analysis.
(§4) The tumor-bearing mice were anesthetized with pentobarbital sodium before microPET scanning. Each mouse was intravenously injected with approximately 3.7 MBq (90–120 μCi) of [^68Ga]Ga-P144. After administration, the mice were scanned by a small animal PET system (Inveon, Siemens, Munich, Germany). The body temperature of the mice was monitored by a rectal probe and kept at 37°C by a heated air stream. The scanning time was set as follows: static PET scanning for 10 min and scanning energy window 350–650 keV at four time points (1 h, 2 h, 3 h, and 4 h) after the injection. MicroPET image reconstruction was performed using a 3D OSEM PSF algorithm with five iterations. Images were processed and analyzed using PMOD4.2 software (PMOD Technologies Ltd., Zurich, Switzerland). Regions of interest (ROIs) of the brain, heart, liver, lungs, kidney, muscle, and tumor were delineated. Radioactivity values of the ROIs per unit volume were obtained, and the percentage of injected dose per tissue weight in gram (%ID/g) values of the different organs and tissues were calculated as follows:
(§5) %ID/g=radiouptake in ROI(kBq/g)/injection dose(kBq)×100.

[5] = test system: PANC-1 tumor-bearing mice; test: in vivo; details: mouse
Procedure: as §2, §3, §4, §5

[6] = in vivo; details: nude, mouse, iv, 1 mg/kg, total radioactivity; remark: listed apart in the source
Procedure: For biodistribution assay ex vivo, the PANC-1 tumor model mice were euthanized by pentobarbital sodium at 1 h after tracer administration. The blood was harvested via cardiac puncture, and the different organs/tissues were isolated, weighed, and counted on a γ-counter for radioactivity. The amount of the injected radiotracer was measured and used to determine the total number of counts of nuclei decay per minute (CPM) by comparison with a standard of known activity. The data were background- and decay-corrected and expressed as percentages of the injection dose per tissue weight in grams (%ID/g).

[7] = in vivo; details: nude, mouse, iv, 1 mg/kg, total radioactivity; remark: listed apart in the source
Procedure: as §3, with “After the last scanning, the mice were anesthetized with 2% pentobarbital sodium at 65 mg/kg intraperitoneally and then executed by dislocation of their cervical vertebra, and the tissues were harvested for analysis.” left out
The tumor-bearing mice were anesthetized with pentobarbital sodium before microPET scanning. […] The body temperature of the mice was monitored by a rectal probe and kept at 37°C by a heated air stream. […] Images were processed and analyzed using PMOD4.2 software (PMOD Technologies Ltd., Zurich, Switzerland). […] Radioactivity values of the ROIs per unit volume were obtained, and the percentage of injected dose per tissue weight in gram (%ID/g) values of the different organs and tissues were calculated as follows: […]

[8] = test system: human glioblastoma cells; details: ref [28]; cited from earlier work
Text: TGFβ-specific blocking peptide P144 selected in this study was an analog of the essential structure for ligand recognition and binding in the extracellular domain of TGFβR3, which has high specificity and affinity to TGFβ ([36]). […] The doses of th ...

CC[C@H](C)[C@H](NC(=O)[C@H](CO)NC(=O)[C@H](C)NC(=O)[C@H](CC(=O)O)NC(=O)[C@H](CC(C)C)NC(=O)[C@H](CO)NC(=O)[C@@H](NC(=O)CCOCCOCCOCCNC(=O)CN1CCN(CC(=O)O)CCN(CC(=O)O)CCN(CC(=O)O)CC1)[C@@H](C)O)C(=O)N[C@@H](Cc1c[nH]c2ccccc12)C(=O)N[C@@H](C)C(=O)N[C@@H](CCSC)C(=O)N[C@@H](CCSC)C(=O)N[C@@H](CCC(N)=O)C(=O)N[C@@H](CC(N)=O)C(=O)N[C@@H](C)C(N)=O [[^68Ga]Ga-P144, metal not drawn] ({DOTA-PEG3}-TSLDASIWAMMQNA-NH2; N-terminus and C-terminus assumed)
radiochemical purity after purification and placement at room temperature for 4 h [1]: 98.87%
cell uptake ratio (internalization) [2]: high and persistent
cell uptake ratio (non-specific cellular uptake) [3]: very low level
tissue to tissue ratio at 1 h [4]: 3.44 ± 1.53
tissue to tissue ratio at 4 h [4]: 3.77 ± 1.18
tissue uptake at 1 h ([4]; uptake in heart): 5.74 ± 1.68 %ID/g
tissue uptake at 4 h ([4]; uptake in heart): 3.92 ± 0.891 %ID/g
tissue uptake at 1 h ([4]; uptake in kidneys): 3.32 ± 0.636 %ID/g
tissue uptake at 4 h ([4]; uptake in kidneys): 2.8 ± 0.281 %ID/g
tissue uptake at 1 h ([4]; uptake in liver): 4.01 ± 0.975 %ID/g
tissue uptake at 4 h ([4]; uptake in liver): 2.91 ± 0.431 %ID/g
tissue uptake at 1 h ([4]; uptake in lung): 3.56 ± 0.739 %ID/g
tissue uptake at 4 h ([4]; uptake in lung): 2.19 ± 0.206 %ID/g
tissue uptake at 1 h ([4]; uptake in tumors): 5.76 ± 1.21 %ID/g
tissue uptake at 4 h ([4]; uptake in tumors): 6.02 ± 1.37 %ID/g
tumor retention time [5]: > 4 h
tissue uptake at 1 h ([6]; ex vivo radioactive biodistribution in heart): 4.89 ± 0.899 %ID/g
tissue uptake at 1 h ([6]; ex vivo radioactive biodistribution in kidney): 2.98 ± 0.854 %ID/g
tissue uptake at 1 h ([6]; ex vivo radioactive biodistribution in liver): 1.95 ± 0.717 %ID/g
tissue uptake at 1 h ([6]; ex vivo radioactive biodistribution in lung): 3.16 ± 0.429 %ID/g
tissue uptake at 1 h ([6]; ex vivo radioactive biodistribution in tumors): 4.63 ± 1.22 %ID/g
tissue uptake at 1 h [7]: 5.36 ± 0.937 %ID/g

TSLDASIWAMMQNA [P144]
growth and proliferation of human glioblastoma cells [8]: significantly inhibit
